Measured values: patent US20060140858A1, “Drug pre-targeting by means of bi-specific antibodies and hapten constructs comprising a carrier peptide and the active agent(s)” (Immunomedics, Inc., priority 2002, published 2006)

Test: Biodistribution of In-111 IMP 224 in BALB/c mice
Type: in vivo
Protocol: Kits were reconstituted with 400 μCi In-111 in 0.5 mL water.

Molecule `COc1cccc2c1C(=O)c1c(O)c3c(c(O)c1C2=O)C[C@@](O)(C(CO)=NNc1ccc(C(=O)N[C@@H](CCCCNC(=O)CN(CCN(CCN(CC(=O)O)CC(=O)O)CC(=O)O)CC(=O)O)C(=O)N[C@@H](Cc2ccc(O)cc2)C(=O)N[C@@H](CCCCNC(=O)CN(CCN(CCN(CC(=O)O)CC(=O)O)CC(=O)O)CC(=O)O)C(N)=O)cc1)C[C@@H]3O[C@H]1C[C@H](N)[C@H](O)[C@H](C)O1` [IMP 224, Dox = N—NH—C6H4—CO-Lys(DTPA)-Tyr-Lys(DTPA)-NH2] has a tissue uptake at 0.5 h (BALB/c, mouse, 20 uCi, total radioactivity, Blood, 30 min) of 1.44 ± 0.28 %ID/g, a tissue uptake at 1 h (BALB/c, mouse, 20 uCi, total radioactivity, Blood, 1 hr) of 0.54 ± 0.12 %ID/g and a tissue uptake at 2 h (BALB/c, mouse, 20 uCi, total radioactivity, Blood, 2 hr) of 0.12 ± 0.01 %ID/g. It also gave a tissue uptake at 4 h (BALB/c, mouse, 20 uCi, total radioactivity, Blood, 4 hr) of 0.1 ± 0.01 %ID/g, a tissue uptake at 24 h (BALB/c, mouse, 20 uCi, total radioactivity, Blood, 24 hr) of 0.02 %ID/g and a tissue uptake at 0.5 h (BALB/c, mouse, 20 uCi, total radioactivity, Kidney, 30 min) of 8.45 ± 1.79 %ID/g. It also gave a tissue uptake at 1 h (BALB/c, mouse, 20 uCi, total radioactivity, Kidney, 1 hr) of 5.36 ± 1.01 %ID/g, a tissue uptake at 2 h (BALB/c, mouse, 20 uCi, total radioactivity, Kidney, 2 hr) of 3.75 ± 0.52 %ID/g and a tissue uptake at 4 h (BALB/c, mouse, 20 uCi, total radioactivity, Kidney, 4 hr) of 4.03 ± 0.45 %ID/g. It also gave a tissue uptake at 24 h (BALB/c, mouse, 20 uCi, total radioactivity, Kidney, 24 hr) of 2.12 ± 0.17 %ID/g, a tissue uptake at 0.5 h (BALB/c, mouse, 20 uCi, total radioactivity, Liver, 30 min) of 0.57 ± 0.04 %ID/g and a tissue uptake at 1 h (BALB/c, mouse, 20 uCi, total radioactivity, Liver, 1 hr) of 0.31 ± 0.03 %ID/g. For the same molecule, the tissue uptake at 2 h (BALB/c, mouse, 20 uCi, total radioactivity, Liver, 2 hr) was 0.17 ± 0.03 %ID/g, the tissue uptake at 4 h (BALB/c, mouse, 20 uCi, total radioactivity, Liver, 4 hr) was 0.17 ± 0.01 %ID/g and the tissue uptake at 24 h (BALB/c, mouse, 20 uCi, total radioactivity, Liver, 24 hr) was 0.13 ± 0.02 %ID/g. It also gave a tissue uptake at 0.5 h (BALB/c, mouse, 20 uCi, total radioactivity, Lungs, 30 min) of 1.61 ± 0.34 %ID/g, a tissue uptake at 1 h (BALB/c, mouse, 20 uCi, total radioactivity, Lungs, 1 hr) of 0.99 ± 0.26 %ID/g and a tissue uptake at 2 h (BALB/c, mouse, 20 uCi, total radioactivity, Lungs, 2 hr) of 0.25 ± 0.02 %ID/g. For the same molecule, the tissue uptake at 4 h (BALB/c, mouse, 20 uCi, total radioactivity, Lungs, 4 hr) was 0.17 ± 0.02 %ID/g, the tissue uptake at 24 h (BALB/c, mouse, 20 uCi, total radioactivity, Lungs, 24 hr) was 0.09 ± 0.02 %ID/g and the tissue uptake at 0.5 h (BALB/c, mouse, 20 uCi, total radioactivity, Muscle, 30 min) was 0.51 ± 0.19 %ID/g. It also gave a tissue uptake at 1 h (BALB/c, mouse, 20 uCi, total radioactivity, Muscle, 1 hr) of 0.21 ± 0.08 %ID/g, a tissue uptake at 2 h (BALB/c, mouse, 20 uCi, total radioactivity, Muscle, 2 hr) of 0.03 ± 0.02 %ID/g and a tissue uptake at 4 h (BALB/c, mouse, 20 uCi, total radioactivity, Muscle, 4 hr) of 0.02 %ID/g. It also gave a tissue uptake at 24 h (BALB/c, mouse, 20 uCi, total radioactivity, Muscle, 24 hr) of 0.01 %ID/g, a tissue uptake at 0.5 h (BALB/c, mouse, 20 uCi, total radioactivity, Spleen, 30 min) of 0.57 ± 0.18 %ID/g and a tissue uptake at 1 h (BALB/c, mouse, 20 uCi, total radioactivity, Spleen, 1 hr) of 0.27 ± 0.06 %ID/g. It also gave a tissue uptake at 2 h (BALB/c, mouse, 20 uCi, total radioactivity, Spleen, 2 hr) of 0.12 ± 0.01 %ID/g, a tissue uptake at 4 h (BALB/c, mouse, 20 uCi, total radioactivity, Spleen, 4 hr) of 0.11 ± 0.01 %ID/g and a tissue uptake at 24 h (BALB/c, mouse, 20 uCi, total radioactivity, Spleen, 24 hr) of 0.07 %ID/g. The tissue uptake at 0.5 h (BALB/c, mouse, 20 uCi, total radioactivity, Stomach, 30 min) was 0.61 ± 0.07 %ID/g, the tissue uptake at 1 h (BALB/c, mouse, 20 uCi, total radioactivity, Stomach, 1 hr) was 0.15 ± 0.07 %ID/g and the tissue uptake at 2 h (BALB/c, mouse, 20 uCi, total radioactivity, Stomach, 2 hr) was 0.05 ± 0.01 %ID/g. For the same molecule, the tissue uptake at 4 h (BALB/c, mouse, 20 uCi, total radioactivity, Stomach, 4 hr) was 0.06 ± 0.02 %ID/g, the tissue uptake at 24 h (BALB/c, mouse, 20 uCi, total radioactivity, Stomach, 24 hr) was 0.04 ± 0.02 %ID/g and the tissue uptake at 0.5 h (BALB/c, mouse, 20 uCi, total radioactivity, Tail, 30 min) was 3.66 ± 0.43 %ID/g. The tissue uptake at 1 h (BALB/c, mouse, 20 uCi, total radioactivity, Tail, 1 hr) was 1.9 ± 0.09 %ID/g, the tissue uptake at 2 h (BALB/c, mouse, 20 uCi, total radioactivity, Tail, 2 hr) was 0.46 ± 0.09 %ID/g and the tissue uptake at 4 h (BALB/c, mouse, 20 uCi, total radioactivity, Tail, 4 hr) was 0.24 ± 0.03 %ID/g. The tissue uptake at 24 h (BALB/c, mouse, 20 uCi, total radioactivity, Tail, 24 hr) was 0.58 ± 0.22 %ID/g, the excreta dose per gram or mL at 2 h (BALB/c, mouse, 20 uCi, total radioactivity, Urine, 2 hr) was 19.1 %ID/g and the excreta dose per gram or mL at 4 h (BALB/c, mouse, 20 uCi, total radioactivity, Urine, 4 hr) was 1.72 ± 0.67 %ID/g. It also gave an excreta dose per gram or mL at 24 h (BALB/c, mouse, 20 uCi, total radioactivity, Urine, 24 hr) of 0.42 ± 0.18 %ID/g, a tissue uptake at 0.5 h (BALB/c, mouse, large intestine, 20 uCi, total radioactivity, Large Int., 30 min) of 0.59 ± 0.43 %ID/g and a tissue uptake at 1 h (BALB/c, mouse, large intestine, 20 uCi, total radioactivity, Large Int., 1 hr) of 0.18 ± 0.04 %ID/g. For the same molecule, the tissue uptake at 2 h (BALB/c, mouse, large intestine, 20 uCi, total radioactivity, Large Int., 2 hr) was 0.38 ± 0.15 %ID/g, the tissue uptake at 4 h (BALB/c, mouse, large intestine, 20 uCi, total radioactivity, Large Int., 4 hr) was 0.3 ± 0.06 %ID/g and the tissue uptake at 24 h (BALB/c, mouse, large intestine, 20 uCi, total radioactivity, Large Int., 24 hr) was 0.08 ± 0.03 %ID/g. The tissue uptake at 0.5 h (BALB/c, mouse, small intestine, 20 uCi, total radioactivity, Small Int., 30 min) was 0.72 ± 0.08 %ID/g, the tissue uptake at 1 h (BALB/c, mouse, small intestine, 20 uCi, total radioactivity, Small Int., 1 hr) was 0.37 ± 0.19 %ID/g and the tissue uptake at 2 h (BALB/c, mouse, small intestine, 20 uCi, total radioactivity, Small Int., 2 hr) was 0.09 ± 0.01 %ID/g. The tissue uptake at 4 h (BALB/c, mouse, small intestine, 20 uCi, total radioactivity, Small Int., 4 hr) was 0.09 ± 0.03 %ID/g, the tissue uptake at 24 h (BALB/c, mouse, small intestine, 20 uCi, total radioactivity, Small Int., 24 hr) was 0.05 ± 0.01 %ID/g and the “% ID/g” value (Urine, 30 min) was 1553 % ID/g. The “% ID/g” value (Urine, 1 hr) was 1400 ± 421 % ID/g.
